The source of these data is article PMC1780049, “Functional analysis of Arabidopsis WRKY25 transcription factor in plant defense against Pseudomonas syringae”.

Where a chain is given by its changes, count along the chain named.

The series deals with T1, WRKY25 (Arabidopsis, UniProt O22921 1-393).
T1 sequence: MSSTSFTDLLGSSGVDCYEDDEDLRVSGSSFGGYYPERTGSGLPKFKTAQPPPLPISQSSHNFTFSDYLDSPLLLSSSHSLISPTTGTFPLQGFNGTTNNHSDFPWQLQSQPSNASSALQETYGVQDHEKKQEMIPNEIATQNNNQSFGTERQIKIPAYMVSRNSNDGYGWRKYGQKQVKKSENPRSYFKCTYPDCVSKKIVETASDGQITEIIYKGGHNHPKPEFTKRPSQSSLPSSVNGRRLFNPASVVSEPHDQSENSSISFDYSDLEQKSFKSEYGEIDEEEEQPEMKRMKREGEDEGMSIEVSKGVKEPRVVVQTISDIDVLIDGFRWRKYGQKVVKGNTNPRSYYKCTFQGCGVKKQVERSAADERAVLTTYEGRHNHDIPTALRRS
As to the kind of experiment: EMSA; poly(dIdC) 5 ug; 12 ul nuclear extraction buffer (25 mM HEPES/KOH pH 7.5, 40 mM KCl, 0.1 mM EDTA, 10% glycerol, 1 mM DTT, PMSF), 5 ug poly(dIdC), 1 ug protein, 2 ng labelled dsDNA; room temperature 30 min; 10% PAGE in 0.5x TBE at 4 C. Conditions: protein: recombinant, tags: His-tagged, pET32a (EcoRI/XhoI) vector fusion, (Klenow labelled, ~10^5 cpm/ng). A general note: A gel shift assay detects complexes by their altered migration in electrophoresis.

B1: Pchn5 (dsDNA)
DNA 1: GGAACTTGACCATCCGTTGACCGGGCTGCAGGAATTCG
DNA 2: CGAATTCCTGCAGCCCGGTCAACGGATGGTCAAGTTCC
On to B1, for which the binding result was “binds”.

B2: mPchn5 (dsDNA)
DNA 1: B1 DNA 1 with C10A, C21A
DNA 2: B1 DNA 2 with G18T, G29T
For B2, the binding result was “no binding”.
